14 variants from publication PMC5764952 (2018) can be followed below.

First the molecules themselves.
B1: Untagged murine saposin A (SapA) [mouse] / His6-tagged murine β-galactocerebrosidase (GALC) [modified: glycosylated; glycosylated] [mouse] (parent complex)
chain 1: MGKSLPCDICKTVVTEAGNLLKDNATQEEILHYLEKTCEWIHDSSLSASCKEVVDSYLPVILDMIKGEMSNPGEVCSALNLCQSLQE
chain 2: YVLDDSDGLGREFDGIGAVSGGGATSRLLVNYPEPYRSEILDYLFKPNFGASLHILKVEIGGDGQTTDGTEPSHMHYELDENYFRGYEWWLMKEAKKRNPDIILMGLPWSFPGWLGKGFSWPYVNLQLTAYYVVRWILGAKHYHDLDIDYIGIWNERPFDANYIKELRKMLDYQGLQRVRIIASDNLWEPISSSLLLDQELWKVVDVIGAHYPGTYTVWNAKMSGKKLWSSEDFSTINSNVGAGCWSRILNQNYINGNMTSTIAWNLVASYYEELPYGRSGLMTAQEPWSGHYVVASPIWVSAHTTQFTQPGWYYLKTVGHLEKGGSYVALTDGLGNLTIIIETMSHQHSMCIRPYLPYYNVSHQLATFTLKGSLREIQELQVWYTKLGTPQQRLHFKQLDTLWLLDGSGSFTLELEEDEIFTLTTLTTGRKGSYPPPPSSKPFPTNYKDDFNVEYPLFSEAPNFADQTGVFEYYMNNEDREHRFTLRQVLNQRPITWAADASSTISVIGDHHWTNMTVQCDVYIETPRSGGVFIAGRVNKGGILIRSATGVFFWIFANGSYRVTADLGGWITYASGHADVTAKRWYTLTLGIKGYFAFGMLNGTILWKNVRVKYPGHGWAAIGTHTFEFAQFDNFRVEAAR

In the assay the parent is B1. Put plainly: pull-down (immobilised GALC, Coomassie SDS-PAGE, quantified); in the presence of Tween-20; n = 3; read off a plot.
Consider chain 1 MGKSLPCDICKTVVTEAGNLLKDNATQEEILHYLEKTCEWIHDSSLSASCKEVVDSYLPVILKMIKGEMSNPGEVCSALNLCQSLQE [chain 1 D63K], for which the ratio to parent was about 0.03.
As to chain 1 MGKSLPCDICKTVVTEAGNLLKDNATQEEILHYLEKTCEWIHDSSLSASCKEVVDSYLPVILDMIKGKMSNPGEVCSALNLCQSLQE [chain 1 E68K], the ratio to parent is about 1.1.
Under chain 1 MGKSLPCDICKTVVTEAGNLLKDNATQEEIRHYLEKTCEWIHDSSLSASCKEVVDSYLPVILDMIKGEMSNPGEVCSALNLCQSLQE [chain 1 L31R] stands about 0.04; under chain 1 MGKSLPCDICKTVVTEAGNLLKDNATQEEINHYLEKTCEWIHDSSLSASCKEVVDSYLPVILDMIKGEMSNPGEVCSALNLCQSLQE [chain 1 L31N], about 0.13; under chain 1 MGKSLPCDICKTVVTEAGNLLKDNATKEEILHYLEKTCEWIHDSSLSASCKEVVDSYLPVILDMIKGEMSNPGEVCSALNLCQSLQE [chain 1 Q27K], about 0.08.
Under chain 1 MGKSLPCDICKTVVTEAGNLLKDNATQEEILHYLEKTCEWIHDSSLSASCKKVVDSYLPVILDMIKGEMSNPGEVCSALNLCQSLQE [chain 1 E52K] stands about 0.06; under chain 1 MGKSLPCDICKTVVTEAGNLLEDNATQEEILHYLEKTCEWIHDSSLSASCKEVVDSYLPVILDMIKGEMSNPGEVCSALNLCQSLQE [chain 1 K22E], about 0.05.
Then chain 1 MGKSLPCDICKTVVTEAGNLLKDNATQKEILHYLEKTCEWIHDSSLSASCKEVVDSYLPVILDMIKGEMSNPGEVCSALNLCQSLQE [chain 1 E28K], with about 0.06.
Turning to chain 1 MGKSLPCDICKTVVTEAGNLLKDNATQEEILHYLRKTCEWIHDSSLSASCKEVVDSYLPVILDMIKGEMSNPGEVCSALNLCQSLQE [chain 1 E35R], the ratio to parent was about 0.21.
Under chain 1 MGKSLPCDICKTVVTEAGNLLKDNATQEEILHYLEKTCEWIHDSSLSASCKEVVKSYLPVILDMIKGEMSNPGEVCSALNLCQSLQE [chain 1 D55K] stands about 0.12.
In the case of chain 1 MGKSLPCDICKTVVTEAGNLLKDNATQEEILHYLEKTCEFIHDSSLSASCKEVVDSYLPVILDMIKGEMSNPGEVCSALNLCQSLQE [chain 1 W40F], the ratio to parent is about 0.81.
chain 1 MGKSLPCDICKTVVTEAGNLLKDNATQEEILHYLEKTCEDIHDSSLSASCKEVVDSYLPVILDMIKGEMSNPGEVCSALNLCQSLQE [chain 1 W40D]: the ratio to parent was about 0.8.
Then chain 1 MGKSLPCDICKTVVTEAGNLLKDNATQEEILHYLEKTCESIHDSSLSASCKEVVDSYLPVILDMIKGEMSNPGEVCSALNLCQSLQE [chain 1 W40S], with about 0.77; and chain 1 MGKSLPCDICKTVVTEAGNLLKDNATQEEILHYLEKTCEWIHDSSLSASCKEVVDSYLPVILDMIEGEMSNPGEVCSALNLCQSLQE [chain 1 K66E], with about 0.77.
